# Ends that are not written are not given here. Peptide text beside a SMILES is read from it. * marks the point of attachment. Dansyl = CN(C)c1cccc2c(S(=O)(=O)*)cccc12
# Target: recombinant human farnesyl:protein transferase (hFPTase) (Homo sapiens, UniProt P49354+P49356)
# Assay: continuous fluorescence assay of farnesyl:protein transferase activity with dansylated acceptor peptide
# Assay type: biochemical
# Conditions: for substrate of FPTase (fluorescence enhancement): other dansylated peptides synthesized to optimize the sensitivity of the assay
# Method: FIG. 1A is a fluorescence progress curve, A, of the reaction catalyzed by recombinant human farnesyl:protein transferase (hFPTase; 0.5 nM) using Ds-GlyCysValLeySer (SEQ.ID.NO.:1) (1.0 μM) as substrate in the presence of a saturating concentration of farnesyl diphosphate ([…]) in assay buffer (50 mM Tris-HCl, pH 7.5, 5 mM DTT, 5 mM MgCl2, 10 μM ZnCl2, and 0.2% octyl-β-D-glucopyranoside) at 30° C. Fluorescence data in the integration mode were obtained on a SPEX Fluorolog Model F112X1 spectrofluorimeter with λex =340 nm (slit width=4 nm) and λem =505 nm (slit width=8 nm) using 4 mm square microcells. Concentrations of stock solutions of Ds-GlyCysValLeuSer (SEQ.ID.NO.: 1 ) (in 20 mM Tris-CHl, pH 7.5, 10 mM EDTA) were calculated from the extinction coefficient of the dansyl moiety at 340 nm(ε=4250 M^-1 cm^-1).
# Double reciprocal plot of initial velocity versus Ds-GlyCysValLeuSer (SEQ.ID.NO.:1) concentration in the presence of (.cndot.)0, and 50 nM CysIlePheMet (SEQ.ID.NO.:2) at 30° C. Reactions (400 μL) contained hFPTase(1 nM), FPP (10 μM) and varying concentrations of Ds-GlyCysValLeuSer (SEQ.ID.NO.:1) with or without 50 nM peptide CysIlePheMet (SEQ.ID.NO.:2) in assay buffer (see FIG. 1).
# The continuous FPTase activity assay is based on the enhancement of fluorescence and the accompanying shift to lower wavelength emission maximum of certain fluorophores, like dansyl, upon change from a polar to non-polar molecular environment (Lakowicz, Principles of Fluorescence Spectroscopy, Plenum Press, New York, (1983)). The present invention utilizes an acceptor peptide substrate with an environmentally sensitive fluorescence probe positioned proximally to the reaction center. Substrate pentapeptide N-dansyl-GlyCysValLeuSer(Ds Gly CysValLeuSer) (SEQ.ID.NO.1) and expected product N-dansyl-Gly(S-farnesyl-Cys)ValLeuSer(Ds-Gly[f-Cys]LeuSer were synthesized by standard methods.
# (Pompliano, et al., Biochemistry, 31, 3800-3807 (1992)).
Compound,substrate of FPTase (fluorescence enhancement),also measured
"CC(C)=CCC/C(C)=C/CC/C(C)=C/CO[P@@](=O)(O)OP(=O)(O)O (stereo in doubt) [FPP, farnesyl diphosphate, reference compound]",,"Km (in the presence of Ds-GlyCysValLeuSer as acceptor substrate, read-out: KM (FPP)): 0.03 µM"
"CC(C)C[C@H](NC(=O)[C@@H](NC(=O)[C@H](CS)NC(=O)CNS(=O)(=O)c1cccc2c(N(C)C)cccc12)C(C)C)C(=O)N[C@@H](CO)C(=O)O [Ds-GlyCysValLeuSer, N-dansyl-L-glycinyl-L-cysteinyl-L-valinyl-L-leucinyl-L-serine] (Dansyl-GCVLS-OH)",,"kcat (Ds-GlyCysValLeuSer as acceptor substrate, Michaelis-Menten kinetics, assay buffer pH 7.5, 30° C.): 0.5 S^-1"
CysIlePheMet (CIFM) [reference compound],,"Ki (competitive inhibitor of Ds-GlyCysValLeuSer binding, hFPTase 1 nM, FPP 10 μM, 30° C.): 9 nM"
Ds-CysValIleMet (Dansyl-CVIM) [dansylated peptide],substrates,
Ds-CysValLeuSer (Dansyl-CVLS) [dansylated peptide],substrates,
Ds-GlyCysCysValLeuSer,substrates,
Ds-LysCysValLeuSer (Dansyl-KCVLS) [dansylated peptide],substrates,

# From patent publication US5525479A, “Fluorescence assay of Ras farnesyl protein transferase” (Merck & Co., Inc., priority 1994, dated 1996)
